Measurements reported in paper PMC10294656.

Biological target: human apolipoprotein-B mRNA-editing catalytic polypetide-like 3A protein (human) (UniProt P31941)
Assay: co-IP; HepaRG cells cotransfected with pLenti6.3-Apobec3A-V5 and pEYFP-Apobec3A, mock-infected or infected with HAdV wt (50 ffu/cell), harvested 24 and 48 hpi; whole-cell lysates; YFP-Apobec3A held on ChromoTek GFP-Trap agarose beads, V5-Apobec3A detected by Western blot; V5 signal normalised to input and β-actin

human apolipoprotein-B mRNA-editing catalytic polypetide-like 3A protein, P31941 1-199 (enzyme; other documents disagree on this pair), sequence (P31941 whole entry): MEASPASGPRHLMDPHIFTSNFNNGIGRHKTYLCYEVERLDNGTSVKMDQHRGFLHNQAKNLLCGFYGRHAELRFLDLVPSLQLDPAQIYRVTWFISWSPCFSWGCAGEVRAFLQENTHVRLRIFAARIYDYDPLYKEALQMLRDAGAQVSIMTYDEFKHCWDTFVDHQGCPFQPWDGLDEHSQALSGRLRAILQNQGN

fold increase of co-precipitated V5-Apobec3A at 48 h after HAdV infection against mock: 10 fold
Substance: human apolipoprotein-B mRNA-editing catalytic polypetide-like 3A protein, P31941 1-199 (enzyme; other documents disagree on this pair)
